In patent US20190262327A1, “COMBINATION OF A BACE INHIBITOR AND AN ANTIBODY OR ANTIGEN-BINDING FRAGMENT FOR THE TREATMENT OF A DISORDER ASSOCIATED WITH THE ACCUMULATION OF AMYLOID BETA” (ASTRAZENECA AB, priority 2016, published 2019):

What was measured:
[1] = target: T1, Amyloid beta 1-42 peptide (Rattus norvegicus, UniProt P08592); experiment: Total Amyloid beta 1-42 peptide in rat brain homogenates (ELISA); assay type: in vivo; details: normal rats
T1 construct: Measurement of free Amyloid beta 1-42 peptide in rat CSF; from tissue; host or cells: CSF and brain homogenate of Sprague-Dawley rats
Experimental: (§1) Eight-week old male albino Harlan Sprague-Dawley rats (n=8-12) received a single dose of Abet0380-GL IgG1-TM antibody by intravenous injection with a dosing vehicle of 25 mM Histidine, 7% Sucrose, 0.02% p80 surfactant, pH 6.0 at 5 ml/kg. Dosing solutions were made just before dosing. Animals were anaesthetized at the time indicated and cerebrospinal fluid (CSF) was aspirated from the cistema magna. CSF samples were centrifuged for 10 minutes at approximately 3000× g at 4° C. within 20 minutes of sampling to remove cells or debris. Samples were then frozen on dry ice and stored at −70° C. for subsequent analysis.
Animals were sacrificed by decapitation, brain tissue was dissected and Amyloid beta peptides were extracted from brain tissue in diethylamine (DEA; Fluka. Sigma. UK; cat: 31729). Briefly, frozen brain tissue was homogenized in 0.2% DEA and 50 mM NaCl (Merck, USA: cat: 1.06404.1000). Brain homogenates were ultracentrifuged at 133,000×g, for 1 hour. Recovered supernatants were neutralized to pH 8.0 with 2 M Tris-HCl (TRIZMA®-hydrochloride; Sigma, UK; cat: 93363) and stored at −70° C. until analysis. Animal experimentations were performed in accordance with relevant guidelines and regulations provided by the Swedish Board of Agriculture. The ethical permission was provided by an ethical board specialized in animal experimentations: the Stockholm Södra Animal Research Ethical Board.
Measurement of total (free and Abet0380-GL bound) Amyloid beta 1-42 peptide in rat brain homogenates was performed using modifications of the mouse Amyloid beta (1-42) colorimetric ELISA kit (Invitrogen, UK: cat: KMB3441). […] To stop the reaction, 100 μl of Stop Solution was added to each well and the plate was read within 2 hours at an absorbance of 450 nm. […]
The ability of antibody Abet0144-GL to sequester amyloid beta 1-42 was investigated in a PK-PD study in normal rats. […] Free and total amyloid beta 1-42 levels were measured using assays described above.

amyloid beta 1-42 = target: T2, amyloid beta 1-42 (Rattus norvegicus, UniProt P08592); experiment: Total amyloid beta 1-42 in rat CSF (PK-PD study in normal rats); assay type: in vivo
T2 construct: Measurement of free Amyloid beta 1-42 peptide in rat CSF; from tissue; host or cells: CSF and brain homogenate of Sprague-Dawley rats
Experimental: (§2) The ability of antibody Abet0144-GL to sequester amyloid beta 1-42 was investigated in a PK-PD study in normal rats. Rats were intravenously administered Abet0144-GL (10 or 40 mg/kg) or vehicle weekly for 2 weeks (on days 0 and 7), and sacrificed a week after the 2nd dose. CSF was sampled for free and total amyloid beta 1-42, and brain was sampled for total amyloid beta 1-42 measurement. Free and total amyloid beta 1-42 levels were measured using assays described above.

[2] = target: T3, human Amyloid beta 1-42 peptide (Homo sapiens, UniProt P05067); experiment: Surface Plasmon Resonance kinetic profiling of purified scFv (ProteOn); assay type: binding; details: biotinylated human Amyloid beta 1-42 on streptavidin chip
T3 construct: biotinylated human Amyloid beta 1-42 peptide (rpeptide, USA; cat: A1117); purchased rPeptide, USA A1117; host or cells: synthetic peptide
Excerpt: Surface Plasmon Resonance was used to analyse the purified scFv clones that had shown significant improvement in binding affinity for human Amyloid beta 1-42 peptide over the parent sequence, Abet0144-GL, in the HTRF™ epitope competition assay (sections 1.3-1.6). Briefly, the ProteOn Protein Interaction Array System (BioRad, USA) was used to assess the kinetic parameters of the interaction between each purified scFv and synthetically produced human Amyloid beta 1-42 peptide. These experiments were performed essentially as described by Karlsson et al. (Karlsson et al., 1991).
The affinity of binding between each test scFv and human Amyloid beta 1-42 was estimated using assays in which biotinylated synthetic human Amyloid beta 1-42 peptide (rPeptide, USA; cat: Al 117) was non-covalently bound via a biotin/streptavidin interaction to a proprietary streptavidin chip (NTA 176-5021) at five different surface densities. The chip surface was regenerated between cycles by a single 60 second injection of 10 mM Glycine pH 2.0 to remove scFv bound to the peptide.
Each scFv at 100-200 nM was sequentially passed over the peptide surface for a sufficient amount of time to observe sensorgrams that could be fitted to an appropriate binding model with confidence. An irrelevant scFv blank was subtracted from the main dataset to reduce the impact of any buffer artefacts or non-specific binding effects. An appropriate binding model was then fitted to the data.

[3] = target: T1, Amyloid beta 1-42 peptide; experiment: Free Amyloid beta 1-42 peptide in rat CSF (immunoprecipitation + ELISA); assay type: in vivo; details: normal rats, 10 mg/kg i.v. weekly for 2 weeks; not significant
Experimental: as §1
Measurement of free Amyloid beta 1-42 peptide in rat CSF was conducted using immunoprecipitation to remove Abet0380-GL bound Amyloid beta 1-42 peptide, followed by analysis by a commercial ELISA kit obtained from Invitrogen. Briefly, a solution of protein A beads (Dynabeads® Protein A; Invitrogen, UK; cat: 100-02D) was added to a 96 well non-skirted plate (polypropylene 0.2 ml; VWR International, UK; cat: 10732-4828) and washed twice with TBST (50 mM TBS; Sigma, UK; cat: T6664 plus 0.1% Tween20) using a magnet (DynaMag™ 96 side; Invitrogen, UK; cat: 123.31 D) to separate the beads from the solution. Thawed rat CSF samples (40 μl) were added to each well and incubated at […] with tilt rotation for 1 hour. The beads were then pelleted using the magnet and 30 μl of immunoprecipitated CSF samples were transferred to a 96 well plate from the ELISA kit (mouse Amyloid beta (1-42) colorimetric ELISA kit; Invitrogen, UK; cat: KMB3441) with 70 μl of the Standard Diluent Buffer already added (supplemented with protease inhibitor; Roche, UK; cat: 11836153001). Calibration standard samples were added to the plate in duplicate and the plate was incubated for 2 hours at room temperature with shaking. The plate was washed 4 times with 400 µl of wash buffer, 100 μl of the detection antibody solution was added to each well and the plate was incubated for 1 hour at room temperature with shaking. Again, the plate was washed 4 times with 400 μl of wash buffer, 100 μl of the secondary antibody working solution was added to each well and the plate was incubated for 30 minutes at room temperature with shaking. Finally, the plate was washed 4 times with 400 μl of wash buffer, 100 μl of stabilized Chromogen was added to each well and the plate was incubated for 30 minutes at room temperature in the dark. To stop the reaction, 100 μl of Stop Solution was added to each well and the plate was read within 2 hours at an absorbance of 450 nm. Single CSF samples were analyzed and data analysis was performed using Prism 4 (GraphPad, USA) with one-way ANOVA on log transformed data without adjustment for multiple comparisons.
To further investigate the effect of the Abet0380-GL IgG1-TM antibody in vivo, rats were administered weekly doses of 0.25, 0.5, 1, 5 or 10 mg/kg over 14 days. Animals were euthanized 168 hours after the second dose to measure levels of free Amyloid beta 1-42 peptide in CSF as well as total Amyloid beta 1-42 or 1-40 peptides in brain tissue.
as §2, with “CSF was sampled for free and total amyloid beta 1-42, and brain was sampled for total amyloid beta 1-42 measurement.” left out

[4] = 10 mg/kg i.v. weekly for 2 weeks
[5] = 40 mg/kg i.v. weekly for 2 weeks

T1 sequence (P08592 672-713 limits assumed): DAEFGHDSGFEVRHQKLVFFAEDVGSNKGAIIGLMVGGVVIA
T3 sequence (P05067 672-713): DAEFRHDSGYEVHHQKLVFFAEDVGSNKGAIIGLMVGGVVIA
T2 sequence (P08592 672-713 limits assumed): as the sequence (P08592 672-713 limits assumed) above

B1: Abet0144-GL: parent anti-Aβ antibody clone, germlined; VH domain SEQ ID NO: 20 and VL domain SEQ ID NO: 29 (antibody, listed as Homo sapiens, V domains shown)
VH: EVQLLESGGGLVQPGGSLRLSCAASGFTFSVYTMWWVRQAPGKGLEWVSVIGSSGGTTVYADSVKGRFTISRDNSKNTLYLQMNSLRAEDTAVYYCAREWMDHSRPYYYYGMDVWGQGTLVTVSS
VL: SYELTQPPSVSVSPGQTASITCSGHNLEDKFASWYQQKPGQSPVLVIYRDDKRPSGIPERFSASNSGHTATLTISGTQAMDEADYYCQAQDSTTRVFGGGTKLTVL
modifications: /note=“Abet0144-GL”
increase of total amyloid beta 1-42 in brain tissue [1, 4]: 16% | increase of total amyloid beta 1-42 in brain tissue [1, 5]: 50% | increase of total amyloid beta 1-42 in CSF (amyloid beta 1-42; [4]): 38% | increase of total amyloid beta 1-42 in CSF (amyloid beta 1-42; [5]): 139% | ka [2]: 116000 M⁻¹ s⁻¹ | kd [2]: 0.0066 s⁻¹ | increase of free amyloid beta 1-42 in CSF compared with vehicle [3]: 5%
